According to PMC6832383, “Co-Immobilization of Tri-Enzymes for the Conversion of Hydroxymethylfurfural to 2,5-Diformylfuran” (Molecules, 2019):

Experiments:
horseradish peroxidase = system: T1, horseradish peroxidase; experiment: spectrophotometric initial rates at […] nm (purpurogallin), non-linear Michaelis-Menten fit; format: biochemical, Armoracia rusticana; conditions: free enzyme; co-substrate 10 mM H2O2; 100 mM phosphate pH 6.0; 30 °C; pyrogallol 1-8 mM
T1 construct: gene PRXC1A

COc1cccc(CO)c1 = experiment: purified protein; conditions: free enzyme, Tris-HCl 50 mM pH 7.1, 37 °C, substrate 3-60 mM

Compound	Km (horseradish peroxidase) [µM]	Km (COc1cccc(CO)c1) [µM]	Vmax (COc1cccc(CO)c1) [µmol/min/mg]
Oc1cccc(O)c1O [pyrogallol]	2210 ± 40		
galactose oxidase (Fusarium graminearum)		17600 ± 1300	216
